In patent US20140271629A1 (Amgen, published 2014):

Key:
[1] = molecular target: Human BMP4 (R&D Systems cat#314-BP) (human) (UniProt P12644); assay: cell-based or functional assay
huCHRDL-1-DEVD-6xHis = molecular target: T1, huCHRDL-1-DEVD-6xHis (human, UniProt Q9BU40 28-456); assay: KinExA, solution equilibrium, huCHRDL-1-coated beads
T1 construct: also called Human CHRDL-1
T1 sequence: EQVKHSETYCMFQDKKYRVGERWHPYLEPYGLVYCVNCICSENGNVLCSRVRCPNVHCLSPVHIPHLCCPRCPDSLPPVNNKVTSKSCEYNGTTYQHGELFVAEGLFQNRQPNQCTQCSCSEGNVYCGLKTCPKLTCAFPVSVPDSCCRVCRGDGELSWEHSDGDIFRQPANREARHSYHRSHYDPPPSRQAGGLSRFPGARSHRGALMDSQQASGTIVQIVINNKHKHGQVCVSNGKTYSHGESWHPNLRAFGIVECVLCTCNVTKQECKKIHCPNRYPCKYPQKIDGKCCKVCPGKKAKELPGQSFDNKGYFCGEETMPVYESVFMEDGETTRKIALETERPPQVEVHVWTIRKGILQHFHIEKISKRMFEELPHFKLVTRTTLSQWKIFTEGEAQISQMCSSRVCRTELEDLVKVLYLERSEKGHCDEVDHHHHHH
Protocol: Binding of the various anti-CHRDL-1 antibodies to huCHRDL-1-DEVD-6xHis was performed using KinExA technology. The huCHRDL-1 protein was coated onto Reacti-Gel™ 6X (Pierce Biotechnology, Inc., Rockford, Ill.) agarose beads at a concentration of 50 ug protein/mL of beads in 50 mM Na₂CO₃ pH 9.6 for approximately 18 hours at 4° C. The coated beads were then blocked with 1 mg/mL BSA (Sigma-Aldrich, St. Louis, Mo.) in 1 M Tris-HCl, pH 7.5 for 2 hours at 4° C. Antibodies at fixed concentrations were mixed with varying concentrations of huCHRDL-1 in PBS containing 0.1 mg/mL BSA and 0.005% polysorbate 20 (P-20, BIAcore, Inc., Piscataway, N.J.) for at least 12 hours at room temperature. Antibody concentrations were 10 pM, 30 pM, 100 pM and/or 300 pM as appropriate. […] Antibody bound to the beads was quantified using fluorescent DyLight 649-conjugated goat anti-murine IgG (H+L) antibody (Jackson ImmunoResearch, West Grove, Pa.) at 1 ug/mL in Super Block (Pierce Biotechnology, Inc., Rockford, Ill.) for the mouse antibodies, or using AlexaFluor™ 647-conjugated goat anti-human IgG (H+L) at 1 ug/mL for the humanized antibody. […] The dissociation equilibrium constant (KD) can be determined from nonlinear regression analysis of the competition curves using a multiple curve one-site homogeneous binding model provided in the KinExA Pro software (Sapidyne Instruments, Inc., Boise, Id.).

Sequence of Human BMP4 (R&D Systems cat#314-BP) (human) (P12644 293-408 limits assumed): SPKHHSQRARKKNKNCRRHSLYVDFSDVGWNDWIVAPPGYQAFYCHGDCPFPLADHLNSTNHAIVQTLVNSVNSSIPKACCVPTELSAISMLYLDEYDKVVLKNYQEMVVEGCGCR

Molecule: muCHRDL-1-DEVD-6xHis (from UniProt Q920C1 23-447)
- RLU mean, BRE-luciferase reporter in MC3T3-E1-BRE-Luc cells stimulated with BMP4 (TSG present) [1]: 254 RLU
- reduction of RLU mean, BRE-luciferase reporter in MC3T3-E1-BRE-Luc cells stimulated with BMP4 (TSG present) [1]: 55%

Molecule: Recombinant human CHRDL-1 (R&D Systems cat#1808-NR), Glu22-Cys450 with C-terminal 10xHis tag (from UniProt Q9BU40 28-456)
- RLU mean, BRE-luciferase reporter in MC3T3-E1-BRE-Luc cells stimulated with BMP4 (TSG present) [1]: 62 RLU
- reduction of RLU mean, BRE-luciferase reporter in MC3T3-E1-BRE-Luc cells stimulated with BMP4 (TSG present) [1]: 89%

B1: huz-LC2G2.2_LC/huz-bmHC2G2.2_eflsIgG1 (antibody, V domains shown)
VH: QVQLVQSGAEVKKPGASVKVSCKASGYTFTSYWMHWVRQAPGQGLERMGNINPSNGGTNYNEKFKSRVTMTVDKSSSTAYMELSSLRSEDTAVYYCARSKNNYVAYYFDYWGQGTLVTVSS
VL: DIQMTQSPSSLSASVGDRVTITCRASENIYYSLAWYQQKPGKAPKLLIYNANSLEDGVPSRFSGSGSGTDFTLTISSLQPEDFATYYCKQAYDVPLTFGQGTKLEIKR
notes: also called huz-2G2.2-A; Huz-2G2.2-A
- Kd (huCHRDL-1-DEVD-6xHis): 0.142 nM
